Source: paper PMC7863392 (EMBO Molecular Medicine, 2020)

How the values were obtained:
[1] = target: T1, recombinant, His-tagged PSMA produced by transfected CHO cells (Homo sapiens, UniProt Q04609); assay: SPR; chimeric antibodies immobilised on a Protein A coated sensor chip; His-tagged PSMA flowed; Biacore X, 25°C, 30 μl/min; settings: both partners purified
T1 construct: prostate-specific membrane antigen (PSMA; FOLH1); probably the soluble extracellular part (surmised); source: transfected CHO cells
T1 sequence (Q04609 56-750): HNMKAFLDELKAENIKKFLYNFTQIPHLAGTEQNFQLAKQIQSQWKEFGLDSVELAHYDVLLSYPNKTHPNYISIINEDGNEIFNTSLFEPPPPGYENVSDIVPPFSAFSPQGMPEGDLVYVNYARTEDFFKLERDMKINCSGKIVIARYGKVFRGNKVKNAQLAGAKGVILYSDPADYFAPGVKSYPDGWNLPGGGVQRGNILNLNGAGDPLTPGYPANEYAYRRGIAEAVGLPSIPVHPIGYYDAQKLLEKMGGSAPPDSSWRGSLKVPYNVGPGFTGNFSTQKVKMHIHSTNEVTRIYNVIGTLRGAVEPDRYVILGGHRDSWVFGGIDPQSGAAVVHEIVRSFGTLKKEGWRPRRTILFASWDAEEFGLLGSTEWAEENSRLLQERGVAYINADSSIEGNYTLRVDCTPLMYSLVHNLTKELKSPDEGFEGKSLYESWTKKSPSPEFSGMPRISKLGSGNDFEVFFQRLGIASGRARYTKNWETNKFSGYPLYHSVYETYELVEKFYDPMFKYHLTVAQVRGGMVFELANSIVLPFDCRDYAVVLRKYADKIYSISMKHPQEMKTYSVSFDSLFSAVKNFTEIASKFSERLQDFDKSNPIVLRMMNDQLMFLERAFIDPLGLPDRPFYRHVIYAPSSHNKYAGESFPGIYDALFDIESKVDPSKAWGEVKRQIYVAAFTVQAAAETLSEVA

[2] = target: T2, PSMA in lysates of 22Rv1^high cells and of lung SCC tumor samples (Homo sapiens, UniProt Q04609-1); assay: co-IP; immunoprecipitation of PSMA from 22Rv1^high cell lysate with chimeric antibody on protein G agarose beads; Western blot with murine J591; settings: one partner purified
T2 construct: prostate-specific membrane antigen (PSMA; FOLH1), human, endogenous; also called FOLH1; source: endogenous, lysates of 22Rv1^high cells and of slices of lung squamous cell carcinoma tumors
T2 sequence (Q04609 whole entry): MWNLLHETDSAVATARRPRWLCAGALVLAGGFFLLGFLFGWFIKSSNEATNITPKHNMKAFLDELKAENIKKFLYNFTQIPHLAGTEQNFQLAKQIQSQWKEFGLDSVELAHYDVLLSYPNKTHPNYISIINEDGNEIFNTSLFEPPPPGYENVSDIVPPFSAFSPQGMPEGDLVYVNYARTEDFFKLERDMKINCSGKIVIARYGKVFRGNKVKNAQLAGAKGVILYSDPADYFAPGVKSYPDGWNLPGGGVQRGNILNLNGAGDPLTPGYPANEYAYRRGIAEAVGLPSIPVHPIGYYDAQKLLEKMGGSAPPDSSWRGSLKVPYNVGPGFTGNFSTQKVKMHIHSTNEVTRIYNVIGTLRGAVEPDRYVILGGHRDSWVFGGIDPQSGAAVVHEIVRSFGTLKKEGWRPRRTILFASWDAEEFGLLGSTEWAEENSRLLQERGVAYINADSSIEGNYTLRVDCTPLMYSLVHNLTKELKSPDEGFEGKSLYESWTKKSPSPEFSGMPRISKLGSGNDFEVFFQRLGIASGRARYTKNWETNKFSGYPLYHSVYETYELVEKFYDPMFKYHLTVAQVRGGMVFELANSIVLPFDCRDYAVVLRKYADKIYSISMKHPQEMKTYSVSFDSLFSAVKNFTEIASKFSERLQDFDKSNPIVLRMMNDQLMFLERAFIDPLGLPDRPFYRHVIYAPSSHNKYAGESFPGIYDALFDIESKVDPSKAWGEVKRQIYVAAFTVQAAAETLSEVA

- binding result [1]: binds
- binding result [2]: binds
B1: chimeric J591 antibody (murine J591 variable regions fused to human constant regions) (antibody, V domains shown)
VH: EVQLQQSGPELVKPGTSVRISCKTSGYTFTEYTIHWVKQSHGKSLEWIGNINPNNGGTTYNQKFEDKATLTVDKSSSTAYMELRSLTSEDSAVYYCAAGWNFDYWGQGTTLTVSS
VL: DIVMTQSHKFMSTSVGDRVSIICKASQDVGTAVDWYQQKPGQSPKLLIYWASTRHTGVPDRFTGSGSGTDFTLAITNVQSEDLADYFCQQYNSYPLTFGAGTKLEIK
